Laboratory results as given in the supplement of paper PMC10567573.

B1: SLC19A2 (parent)
chain: FHHIPSTCQRVNGIKVQNGGIVTD
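Also: lentivirally expressed fusions sorted by FACS into six bins by GFP to DsRed ratio, PSI derived from sequencing read proportions per bin multiplied by bin number.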

Variants of: B1
Assay: protein stability index of a GFP-peptide fusion (GPS, HEK-293T) (PSI 1-6); higher = more stable
Settings: c terminus: a fixed tail appended
With GHHIPSTCQRVNGIKVQNGGIVTD [F1G] the protein stability index was 3.78. For YHHIPSTCQRVNGIKVQNGGIVTD [F1Y], the protein stability index was 2.5. For DHHIPSTCQRVNGIKVQNGGIVTD [F1D], the protein stability index was 4.42. In the case of NHHIPSTCQRVNGIKVQNGGIVTD [F1N], the protein stability index is reported as 3.25. SHHIPSTCQRVNGIKVQNGGIVTD [F1S] gave a protein stability index of 3.48. Work on KHHIPSTCQRVNGIKVQNGGIVTD [F1K] yielded a protein stability index of 2.78. THHIPSTCQRVNGIKVQNGGIVTD [F1T] gave a protein stability index of 3.66. Variant RHHIPSTCQRVNGIKVQNGGIVTD [F1R] has a protein stability index of 3.64. With IHHIPSTCQRVNGIKVQNGGIVTD [F1I] the protein stability index was 3.46. For CHHIPSTCQRVNGIKVQNGGIVTD [F1C], the protein stability index was 3.84. VHHIPSTCQRVNGIKVQNGGIVTD [F1V] gave a protein stability index of 4.14. In the case of FHHIPKTCQRVNGIKVQNGGIVTD [S6K], the protein stability index is reported as 1.86. In the case of FHHIPDTCQRVNGIKVQNGGIVTD [S6D], the protein stability index is reported as 2.28. In the case of FHHIPITCQRVNGIKVQNGGIVTD [S6I], the protein stability index is reported as 1.71. Variant FHHIPCTCQRVNGIKVQNGGIVTD [S6C] has a protein stability index of 2.27. FHHIPYTCQRVNGIKVQNGGIVTD [S6Y] showed a protein stability index of 2.01. For FHHIPHTCQRVNGIKVQNGGIVTD [S6H], the protein stability index was 2.02. With FHHIPLTCQRVNGIKVQNGGIVTD [S6L] the protein stability index was 2.36. Work on FHHIPMTCQRVNGIKVQNGGIVTD [S6M] yielded a protein stability index of 1.92. FHHIPQTCQRVNGIKVQNGGIVTD [S6Q] gave a protein stability index of 2.32. Variant FHHIPATCQRVNGIKVQNGGIVTD [S6A] has a protein stability index of 2.17. With FHHIPPTCQRVNGIKVQNGGIVTD [S6P] the protein stability index was 1.82. Work on FHHIPTTCQRVNGIKVQNGGIVTD [S6T] yielded a protein stability index of 1.6. Work on FHHIPGTCQRVNGIKVQNGGIVTD [S6G] yielded a protein stability index of 1.93. For FHHIPNTCQRVNGIKVQNGGIVTD [S6N], the protein stability index was 1.6. FHHIPETCQRVNGIKVQNGGIVTD [S6E] gave a protein stability index of 2.22. FHHIPFTCQRVNGIKVQNGGIVTD [S6F] showed a protein stability index of 2.69. FHHIPVTCQRVNGIKVQNGGIVTD [S6V] gave a protein stability index of 2.07. With FHHIPWTCQRVNGIKVQNGGIVTD [S6W] the protein stability index was 3.58. With FHHIPRTCQRVNGIKVQNGGIVTD [S6R] the protein stability index was 1.9. Work on FHRIPSTCQRVNGIKVQNGGIVTD [H3R] yielded a protein stability index of 2.53. With FHVIPSTCQRVNGIKVQNGGIVTD [H3V] the protein stability index was 3.16. For FHTIPSTCQRVNGIKVQNGGIVTD [H3T], the protein stability index was 2.06. Work on FHPIPSTCQRVNGIKVQNGGIVTD [H3P] yielded a protein stability index of 2.03. Work on FHGIPSTCQRVNGIKVQNGGIVTD [H3G] yielded a protein stability index of 2.31. For FHDIPSTCQRVNGIKVQNGGIVTD [H3D], the protein stability index was 3. For FHQIPSTCQRVNGIKVQNGGIVTD [H3Q], the protein stability index was 1.71. For FHYIPSTCQRVNGIKVQNGGIVTD [H3Y], the protein stability index was 2.11. Variant FHEIPSTCQRVNGIKVQNGGIVTD [H3E] has a protein stability index of 2.53. FHSIPSTCQRVNGIKVQNGGIVTD [H3S] showed a protein stability index of 1.33. Variant FHFIPSTCQRVNGIKVQNGGIVTD [H3F] has a protein stability index of 1.39. FHCIPSTCQRVNGIKVQNGGIVTD [H3C] gave a protein stability index of 1.92. Variant FHWIPSTCQRVNGIKVQNGGIVTD [H3W] has a protein stability index of 2.18. In the case of FHKIPSTCQRVNGIKVQNGGIVTD [H3K], the protein stability index is reported as 2.79. In the case of FHNIPSTCQRVNGIKVQNGGIVTD [H3N], the protein stability index is reported as 2.25. For FHIIPSTCQRVNGIKVQNGGIVTD [H3I], the protein stability index was 1.59. In the case of FHMIPSTCQRVNGIKVQNGGIVTD [H3M], the protein stability index is reported as 2.8. For FHAIPSTCQRVNGIKVQNGGIVTD [H3A], the protein stability index was 2.22. In the case of FHLIPSTCQRVNGIKVQNGGIVTD [H3L], the protein stability index is reported as 1.96. With FHHIPSTHQRVNGIKVQNGGIVTD [C8H] the protein stability index was 2.13. In the case of FHHIPSTNQRVNGIKVQNGGIVTD [C8N], the protein stability index is reported as 2.69. For FHHIPSTLQRVNGIKVQNGGIVTD [C8L], the protein stability index was 2.3. With FHHIPSTFQRVNGIKVQNGGIVTD [C8F] the protein stability index was 1.97. With FHHIPSTPQRVNGIKVQNGGIVTD [C8P] the protein stability index was 1.94. Work on FHHIPSTYQRVNGIKVQNGGIVTD [C8Y] yielded a protein stability index of 1.86. For FHHIPSTKQRVNGIKVQNGGIVTD [C8K], the protein stability index was 1.83. For FHHIPSTVQRVNGIKVQNGGIVTD [C8V], the protein stability index was 2.3. With FHHIPSTWQRVNGIKVQNGGIVTD [C8W] the protein stability index was 1.93. For FHHIPSTMQRVNGIKVQNGGIVTD [C8M], the protein stability index was 2.39. FHHIPSTEQRVNGIKVQNGGIVTD [C8E] showed a protein stability index of 2.18. Work on FHHIPSTAQRVNGIKVQNGGIVTD [C8A] yielded a protein stability index of 2.36. For FHHIPSTIQRVNGIKVQNGGIVTD [C8I], the protein stability index was 1.99. In the case of FHHIPSTQQRVNGIKVQNGGIVTD [C8Q], the protein stability index is reported as 1.97. For FHHIPSTGQRVNGIKVQNGGIVTD [C8G], the protein stability index was 2.07. Variant FHHIPSTTQRVNGIKVQNGGIVTD [C8T] has a protein stability index of 2.84. For FHHIPSTRQRVNGIKVQNGGIVTD [C8R], the protein stability index was 3.48. Work on FHHIPSTSQRVNGIKVQNGGIVTD [C8S] yielded a protein stability index of 2.27. FHHIPSTDQRVNGIKVQNGGIVTD [C8D] gave a protein stability index of 2.38. FMHIPSTCQRVNGIKVQNGGIVTD [H2M] showed a protein stability index of 2.47. Variant FWHIPSTCQRVNGIKVQNGGIVTD [H2W] has a protein stability index of 3. Work on FVHIPSTCQRVNGIKVQNGGIVTD [H2V] yielded a protein stability index of 2.35. Work on FIHIPSTCQRVNGIKVQNGGIVTD [H2I] yielded a protein stability index of 2.04. With FSHIPSTCQRVNGIKVQNGGIVTD [H2S] the protein stability index was 3.17. In the case of FFHIPSTCQRVNGIKVQNGGIVTD [H2F], the protein stability index is reported as 2.03. For FYHIPSTCQRVNGIKVQNGGIVTD [H2Y], the protein stability index was 1.85. For FRHIPSTCQRVNGIKVQNGGIVTD [H2R], the protein stability index was 2.61. FPHIPSTCQRVNGIKVQNGGIVTD [H2P] gave a protein stability index of 3.26. FAHIPSTCQRVNGIKVQNGGIVTD [H2A] gave a protein stability index of 2.73. Variant FNHIPSTCQRVNGIKVQNGGIVTD [H2N] has a protein stability index of 3.73. Variant FLHIPSTCQRVNGIKVQNGGIVTD [H2L] has a protein stability index of 2.21. Work on FEHIPSTCQRVNGIKVQNGGIVTD [H2E] yielded a protein stability index of 3.65. In the case of FCHIPSTCQRVNGIKVQNGGIVTD [H2C], the protein stability index is reported as 2.28. In the case of FTHIPSTCQRVNGIKVQNGGIVTD [H2T], the protein stability index is reported as 2.4. For FQHIPSTCQRVNGIKVQNGGIVTD [H2Q], the protein stability index was 2.83. Work on FDHIPSTCQRVNGIKVQNGGIVTD [H2D] yielded a protein stability index of 3.31. With FGHIPSTCQRVNGIKVQNGGIVTD [H2G] the protein stability index was 3.01. Variant FKHIPSTCQRVNGIKVQNGGIVTD [H2K] has a protein stability index of 2.52. With FHHIPSTCQCVNGIKVQNGGIVTD [R10C] the protein stability index was 2.36. In the case of FHHIPSTCQFVNGIKVQNGGIVTD [R10F], the protein stability index is reported as 1.7. Variant FHHIPSTCQGVNGIKVQNGGIVTD [R10G] has a protein stability index of 2.23. For FHHIPSTCQAVNGIKVQNGGIVTD [R10A], the protein stability index was 1.81. FHHIPSTCQDVNGIKVQNGGIVTD [R10D] gave a protein stability index of 2.65. Work on FHHIPSTCQEVNGIKVQNGGIVTD [R10E] yielded a protein stability index of 2.46. For FHHIPSTCQHVNGIKVQNGGIVTD [R10H], the protein stability index was 2.5.
